Earlier results as cited in PMC12017986.
Where two headings read alike, the source gives them in different places.

How the values were obtained:
[1] = target: Dynein intermediate chain (IC) (Drosophila melanogaster) (UniProt Q24246)
[2] = target: Swallow (Drosophila melanogaster) (UniProt P40688)
[3] = target: Dynein intermediate chain (IC) (Drosophila melanogaster) (UniProt Q24246); remark: listed apart in the source

UniProt Q24246, sequence (Q24246 whole entry): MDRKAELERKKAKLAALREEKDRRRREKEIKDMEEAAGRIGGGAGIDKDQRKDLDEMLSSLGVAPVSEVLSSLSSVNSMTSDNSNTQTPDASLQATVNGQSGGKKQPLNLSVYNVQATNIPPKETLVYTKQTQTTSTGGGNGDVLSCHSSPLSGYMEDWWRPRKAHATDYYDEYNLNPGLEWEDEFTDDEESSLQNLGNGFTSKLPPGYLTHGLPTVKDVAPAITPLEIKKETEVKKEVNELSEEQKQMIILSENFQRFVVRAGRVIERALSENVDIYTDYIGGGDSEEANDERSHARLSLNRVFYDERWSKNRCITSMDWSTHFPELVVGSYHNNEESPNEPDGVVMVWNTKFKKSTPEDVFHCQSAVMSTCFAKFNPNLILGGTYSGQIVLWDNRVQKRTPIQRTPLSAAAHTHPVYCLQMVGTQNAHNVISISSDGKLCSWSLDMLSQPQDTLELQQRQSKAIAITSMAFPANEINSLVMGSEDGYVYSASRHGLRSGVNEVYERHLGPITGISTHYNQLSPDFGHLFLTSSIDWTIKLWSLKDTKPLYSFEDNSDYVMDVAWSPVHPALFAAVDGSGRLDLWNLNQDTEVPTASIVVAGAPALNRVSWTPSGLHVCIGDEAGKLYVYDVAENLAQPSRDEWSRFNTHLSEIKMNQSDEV
UniProt P40688, sequence (P40688 whole entry): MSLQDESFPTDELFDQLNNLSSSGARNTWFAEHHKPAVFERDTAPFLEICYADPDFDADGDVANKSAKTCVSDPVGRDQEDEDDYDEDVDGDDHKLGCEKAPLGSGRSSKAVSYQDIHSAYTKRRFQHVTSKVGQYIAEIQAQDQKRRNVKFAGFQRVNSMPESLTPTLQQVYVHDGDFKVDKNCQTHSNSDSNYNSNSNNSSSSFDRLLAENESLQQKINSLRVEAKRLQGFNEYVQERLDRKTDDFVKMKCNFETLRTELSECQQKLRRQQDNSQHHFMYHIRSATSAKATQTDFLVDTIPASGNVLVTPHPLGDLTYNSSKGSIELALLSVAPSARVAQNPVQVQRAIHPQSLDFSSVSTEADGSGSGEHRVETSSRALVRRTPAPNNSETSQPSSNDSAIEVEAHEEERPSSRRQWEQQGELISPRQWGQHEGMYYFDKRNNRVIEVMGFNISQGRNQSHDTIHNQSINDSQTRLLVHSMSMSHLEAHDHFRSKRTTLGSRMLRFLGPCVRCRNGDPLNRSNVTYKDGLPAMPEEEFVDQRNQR

For LC8 (from UniProt Q24117), the Kd [1] is listed as 8000 nM, the Kd [2] is listed as 200 nM and the Kd [3] is listed as 130 nM.
